The chains are these.
B1: OR4K15 (parent)
chain: GUUAACGGUCAUAGGCCAUGGAAACUAGGAGCACCAUUUCGCUGCCAGUGAAGAAAUGAACAAAGAAAAUCUGGGCCAGGCAGGCAUCAAAAGAAAUAGUCUUGCGCUCAACCAGAAAGUCUGUAAUCAUUUUAAGGGUA

Our source for the self-cleavage values is the RNAGym collection of RNA variant scans (doi:10.7554/elife.90254).

The variants in the series derive from B1. Nature of the series: self-cleavage, relative activity (ratio to wild type); higher = more cleavage; in vitro, sequencing; the parent is a self-cleaving ribozyme.
As for GUUAACGGUCAUAGGCCAUGGAAACUAGGAGCACCAUUUCGCUGCCAGUGAAGAAAUGAACAAAGAAAAUCAGGGCCAGGCAGGCAUCAAAAGAAAUAGUCUUGCGCUCAACCAGAAAGUCUGUAAUCAUUUUAAGGGUG, the self-cleavage worked out at 0.32.

As for GUUAACGGUCAUAGGCCAUGGAAACUAGGAGCACCAUUUCGCUGCCAGUGAAGAAAUGAACAAAGAAAAUCCGGGCCCGGCAGGCAUCAAAAGAAAUAGUCUUGCGCUCAACCAGAAAGUCUGUAAUCAUUUUAAGGGUA, the self-cleavage turned out to be 0.27. The figure for GUUAACGGUCAUAGGCCAUGGAAACUAGGAGCACCAUUUCGCUGCCAGUGAAGAAAUGAACAAAGAAAAUCCGGGCCGGGCAGGCAUCAAAAGAAAUAGUCUUGCGCUCAACCAGAAAGUCUGUAAUCAUUUUAAGGGUA is 0.25. As for GUUAACGGUCAUAGGCCAUGGAAACUAGGAGCACCAUUUCGCUGCCAGUGAAGAAAUGAACAAAGAAAAUCAGGGCCAGGCAGGCAUCAAAAGAAAUAGUCUUGCGCUCAACCAGAAAGUCUGUAGUCAUUUUAAGGGUA, the figure is 0.16; as for GUUAACGGUCAUAGGCCAUGGAAACUAGGAGCACCAUUUCGCUGCCAGUGAAGAAAUGAACAAAGAAAAUCAGGGCCAGGCAGGCAUCAAAAGAAAUAGUCUUGCGCUCAACCAGAAAGUCUGUAUUCAUUUUAAGGGUA, 0.37; as for GUUAACGGUCAUAGGCCAUGGAAACUAGGAGCACCAUUUCGCUGCCAGUGAAGAAAUGAACAAAGAAAAUCAGGGCCAGGCAGGCAUCAAAAGAGAUAGUCUUGCGCUCAACCAGAAAGUCUGUAAUCAUUUUAAGGGUA, 0.36. The figure for GUUAACGGUCAUAGGCCAUGGAAACUAGGAGCACCAUUUCGCUGCCAGUGAAGAAAUGAACAAAGAAAAUCAGGGCCAGGCAGGCAUCAAAAGAAAUAGUCUUGCGCUCAACCGGAAAGUCUGUAAUCAUUUUAAGGGUA is 0.11; for GUUAACGGUCAUAGGCCAUGGAAACUAGGAGCACCAUUUCGCUGCCAGUGAAGAAAUGAACAAAGAAAAUCAGGGCCAGGCAGGUAUCAAAAGAAAUAGUCUUGCGCUCAACCAGAAAGUCUGUAAUCAUUUUAAGGGUA it is 0.36; for GUUAACGGUCAUAGGCCAUGGAAACUAGGAGCACCAUUUCGCUGCCAGUGAAGAAAUGAACAAAGAAAAUCAGGGCCAGGCAGGCAUCAAAAGAAAUUGUCUUGCGCUCAACCAGAAAGUCUGUAAUCAUUUUAAGGGUA it is 0.33. Turning to GUUAACGGUCAUAGGCCAUGGAAACUAGGAGCACCAUUUCGCUGCCAGUGAAGAAAUGAACAAAGAAAAUCAGGGCCAGGCAGGCAUCAAAUGAAAUAGUCUUGCGCUCAACCAGAAAGUCUGUAAUCAUUUUAAGGGUA, the self-cleavage was determined as 0.13. With GUUAACGGUCAUAGGCCAUGGAAACUAGGAGCACCAUUUCGCUGCCAGUGAAGAAAUGAACAAAGAAAAUCAGGGCCAGGCAGGCAUCAAAAGAAAUAGUCUUGCGCUCAACCAGAAAGUCUGAAAUCAUUUUAAGGGUA, the self-cleavage came out at 0.1. As for GUUAACGGUCAUAGGCCAUGGAAACUAGGAGCACCAUUUCGCUGCCAGUGAAGAAAUGAACAAAGAAAAUCAGGGCCAGGCAGGCAUCAAAAGAAAUAGUCUUGCGCUCAACCAGAAAGUCUGGAAUCAUUUUAAGGGUA, the figure is 0.12; as for GUUAACGGUCAUAGGCCAUGGAAACUAGGAGCACCAUUUCGCUGCCAGUGAAGAAAUGAACAAAGAAAAUCAGGGCCAGGCAGGCAUCAAAAGAAAUAGUCUUGCGCUCAACCAGAAAGUCUGUAAUUAUUUUAAGGGUA, 0.15; as for GUUAACGGUCAUAGGCCAUGGAAACUAGGAGCACCAUUUCGCUGCCAGUGAAGAAAUGAACAAAGAAAAUCAGGGUCAGGCAGGCAUCAAAAGAAAUAGUCUUGCGCUCAACCAGAAAGUCUGUAAUCAUUUUAAGGGUA, 0.28. As for GUUAACGGUCAUAGGCCAUGGAAACUAGGAGCACCAUUUCGCUGCCAGUGAAGAAAUGAACAAAGAAAAUCAGGGCCAGGCAGGCAUCAAAAGAAAUAGUCCUGCGCUCAACCAGAAAGUCUGUAAUCAUUUUAAGGGUA, the figure is 0.58. The figure for GUUAACGGUCAUAGGCCAUGGAAACUAGGAGCACCAUUUCGCUGCCAGUGAAGAAAUGAACAAAGAAAAUCAGGGCCAGGCAGGCAUCAAAAGAAAUAGUCUUGCGCUCAACCAGAAAGUCUGUAAUCAUCUUAAGGGUA is 0.14; for GUUAACGGUCAUAGGCCAUGGAAACUAGGAGCACCAUUUCGCUGCCAGUGAAGAAAUGAACAAAGAAAAUCAGGGCCAGGCAGGCAUCAAAAGAAAUAGUCUUGCGCUCAACCAGAAAGUCUGUAAUCAUUUUAUGGGUA it is 0.14. Consider GUUAACGGUCAUAGGCCAUGGAAACUAGGAGCACCAUUUCGCUGCCAGUGAAGAAAUGAACAAAGAAAAUCAGGGCCAGGCAGGCAUCAAAAGAAAUAGUCUUGCGCUCAACCAGAAAGUCUGUAAUCAUUUUAGGGGUA, for which the self-cleavage turned out to be 0.21. As for GUUAACGGUCAUAGGCCAUGGAAACUAGGAGCACCAUUUCGCUGCCAGUGAAGAAAUGAACAAAGAAAAUCAGGGCCAGGCAGGCAUCAAAAGAAAUAGUAUUGCGCUCAACCAGAAAGUCUGUAAUCAUUUUAAGGGUA, the figure is 0.04; as for GUUAACGGUCAUAGGCCAUGGAAACUAGGAGCACCAUUUCGCUGCCAGUGAAGAAAUGAACAAAGAAAAUCAGGGCCAGGCAGGCAUCAAAAGAAAUAGUCUUGCGCCCAACCAGAAAGUCUGUAAUCAUUUUAAGGGUA, 0.01. The figure for GUUAACGGUCAUAGGCCAUGGAAACUAGGAGCACCAUUUCGCUGCCAGUGAAGAAAUGAACAAAGAAAAUCAGGGCCAGGCAGGCAUCAAAAGAAAUAGUCUUGCGCACAACCAGAAAGUCUGUAAUCAUUUUAAGGGUA is 0.04; for GUUAACGGUCAUAGGCCAUGGAAACUAGGAGCACCAUUUCGCUGCCAGUGAAGAAAUGAACAAAGAAAAUCAGGGCCAGGCAGGCAUCAAAAGAAAUAGUCUUGCGCUCAACCAGAGAGUCUGUAAUCAUUUUAAGGGUA it is 0.16; for GUUAACGGUCAUAGGCCAUGGAAACUAGGAGCACCAUUUCGCUGCCAGUGAAGAAAUGAACAAAGAAAAUCAGGGCCAGGCAGGCAACAAAAGAAAUAGUCUUGCGCUCAACCAGAAAGUCUGUAAUCAUUUUAAGGGUA it is 0.37. As for GUUAACGGUCAUAGGCCAUGGAAACUAGGAGCACCAUUUCGCUGCCAGUGAAGAAAUGAACAAAGAAAAUCAGGGCCAGGCAGGCACCAAAAGAAAUAGUCUUGCGCUCAACCAGAAAGUCUGUAAUCAUUUUAAGGGUA, the figure is 0.19. As to GUUAACGGUCAUAGGCCAUGGAAACUAGGAGCACCAUUUCGCUGCCAGUGAAGAAAUGAACAAAGAAAAUCAGGGCCAGGCAGGCAUCAAUAGAAAUAGUCUUGCGCUCAACCAGAAAGUCUGUAAUCAUUUUAAGGGUA, the self-cleavage stood at 0.24. The figure for GUUAACGGUCAUAGGCCAUGGAAACUAGGAGCACCAUUUCGCUGCCAGUGAAGAAAUGAACAAAGAAAAUCAGGGCCAGGCAGGCAUCAAGAGAAAUAGUCUUGCGCUCAACCAGAAAGUCUGUAAUCAUUUUAAGGGUA is 0.19; for GUUAACGGUCAUAGGCCAUGGAAACUAGGAGCACCAUUUCGCUGCCAGUGAAGAAAUGAACAAAGAAAAUCAGGGCCAGGCAGGCAUCAAAAGUAAUAGUCUUGCGCUCAACCAGAAAGUCUGUAAUCAUUUUAAGGGUA it is 0.37; for GUUAACGGUCAUAGGCCAUGGAAACUAGGAGCACCAUUUCGCUGCCAGUGAAGAAAUGAACAAAGAAAAUCAGGGCCAGGCAGGCAUCAGAAGAAAUAGUCUUGCGCUCAACCAGAAAGUCUGUAAUCAUUUUAAGGGUA it is 0.18. The figure for GUUAACGGUCAUAGGCCAUGGAAACUAGGAGCACCAUUUCGCUGCCAGUGAAGAAAUGAACAAAGAAAAUCCGGGCCAGGCAGGCAUCAAAAGAAAUAGUCUUGCGCUCAACCAGAAAGUCUGUAAUCAUUUUAAGGGUA is 0.12; for GUUAACGGUCAUAGGCCAUGGAAACUAGGAGCACCAUUUCGCUGCCAGUGAAGAAAUGAACAAAGAAAAUCAGGGCCAGGCUGGCAUCAAAAGAAAUAGUCUUGCGCUCAACCAGAAAGUCUGUAAUCAUUUUAAGGGUA it is 0.15.

For GUUAACGGUCAUAGGCCAUGGAAACUAGGAGCACCAUUUCGCUGCCAGUGAAGAAAUGAACAAAGAAAAUCAGGGCCAGGCAGGCAUCAAAAGAAAUAGUCUUGCGCUCAUCCAGAAAGUCUGUAAUCAUUUUAAGGGUA, the self-cleavage came to 0.01. GUUAACGGUCAUAGGCCAUGGAAACUAGGAGCACCAUUUCGCUGCCAGUGAAGAAAUGAACAAAGAAAAUCAGGGCCAGGCAGGCAUCAAAAGAAAUAGUCUUGCGCUCCACCAGAAAGUCUGUAAUCAUUUUAAGGGUA: the self-cleavage worked out at 0.06. As for GUUAACGGUCAUAGGCCAUGGAAACUAGGAGCACCAUUUCGCUGCCAGUGAAGAAAUGAACAAAGAAAAUCAGGGCCAGGCAGGCAUCAAAAGAAAUAGGCUUGCGCUCAACCAGAAAGUCUGUAAUCAUUUUAAGGGUA, the figure is 0.19. The figure for GUUAACGGUCAUAGGCCAUGGAAACUAGGAGCACCAUUUCGCUGCCAGUGAAGAAAUGAACAAAGAAAAUCAGGGCCAGGCAGGCAUCAAAAGAAAUAGCCUUGCGCUCAACCAGAAAGUCUGUAAUCAUUUUAAGGGUA is 0.4; for GUUAACGGUCAUAGGCCAUGGAAACUAGGAGCACCAUUUCGCUGCCAGUGAAGAAAUGAACAAAGAAAAUCAGGGCCAGGCAGGCAUCAAAAGAAAUAGUCUUGCGCUCAACCAGAAAAUCUGUAAUCAUUUUAAGGGUA it is 0.47. The figure for GUUAACGGUCAUAGGCCAUGGAAACUAGGAGCACCAUUUCGCUGCCAGUGAAGAAAUGAACAAAGAAAAUCAGGGCCUGGCAGGCAUCAAAAGAAAUAGUCUUGCGCUCAACCAGAAAGUCUGUAAUCAUUUUAAGGGUA is 0.15; for GUUAACGGUCAUAGGCCAUGGAAACUAGGAGCACCAUUUCGCUGCCAGUGAAGAAAUGAACAAAGAAAAUCAGGGCCAGGCAGGCAUCAAAAGAAAUAGUCUUGCGCUCAACCAGAAAGUCUGUAAUCAUUUGAAGGGUA it is 0.36. On to GUUAACGGUCAUAGGCCAUGGAAACUAGGAGCACCAUUUCGCUGCCAGUGAAGAAAUGAACAAAGAAAAUCAGGGCCAGGCAGGCAUCAAAAGAAAUAGUCUUGCGCUCAACCAGAAAGCCUGUAAUCAUUUUAAGGGUA, for which the self-cleavage was 0.18. Consider GUUAACGGUCAUAGGCCAUGGAAACUAGGAGCACCAUUUCGCUGCCAGUGAAGAAAUGAACAAAGAAAAUCAGGGCCAGGCAGGCAUCAAAAGAAAUAGUCUUGCGCUCAACCAGAAAGUCUGUAAACAUUUUAAGGGUA, for which the self-cleavage came to 0.64. The figure for GUUAACGGUCAUAGGCCAUGGAAACUAGGAGCACCAUUUCGCUGCCAGUGAAGAAAUGAACAAAGAAAAUCAGGGCCAGGCAGGCGUCAAAAGAAAUAGUCUUGCGCUCAACCAGAAAGUCUGUAAUCAUUUUAAGGGUA is 0.17; for GUUAACGGUCAUAGGCCAUGGAAACUAGGAGCACCAUUUCGCUGCCAGUGAAGAAAUGAACAAAGAAAAUCAGGGCCAGGCAGGCUUCAAAAGAAAUAGUCUUGCGCUCAACCAGAAAGUCUGUAAUCAUUUUAAGGGUA it is 0.32.
